Results published in article PMC3926959.

Biological target: T1, Ndc1-mTurquoise2 (S. cerevisiae), P32500
T1 chain: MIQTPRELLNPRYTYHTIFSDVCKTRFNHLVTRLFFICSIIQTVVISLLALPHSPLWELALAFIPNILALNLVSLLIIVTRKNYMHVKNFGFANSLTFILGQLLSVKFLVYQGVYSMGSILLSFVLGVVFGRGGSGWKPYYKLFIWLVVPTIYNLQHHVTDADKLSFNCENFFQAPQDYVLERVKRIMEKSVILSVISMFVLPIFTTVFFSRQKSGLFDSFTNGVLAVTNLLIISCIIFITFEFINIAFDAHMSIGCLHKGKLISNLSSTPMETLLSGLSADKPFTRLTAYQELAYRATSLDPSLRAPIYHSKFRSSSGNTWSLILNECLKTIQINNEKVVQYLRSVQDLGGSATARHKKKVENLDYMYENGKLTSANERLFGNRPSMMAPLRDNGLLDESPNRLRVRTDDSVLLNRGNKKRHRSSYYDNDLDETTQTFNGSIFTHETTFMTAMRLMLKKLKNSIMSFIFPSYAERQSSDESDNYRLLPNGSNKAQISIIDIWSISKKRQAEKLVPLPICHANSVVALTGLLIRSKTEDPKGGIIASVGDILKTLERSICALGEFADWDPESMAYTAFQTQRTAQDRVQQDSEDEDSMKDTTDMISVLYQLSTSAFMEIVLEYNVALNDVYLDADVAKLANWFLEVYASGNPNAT
Experiment: line-scanning fluorescence cross-correlation spectroscopy
Conditions: remark: other sources report otherwise

percent of Ndc1-mTurquoise2 in a complex (FCCS): 2%
B1: Mps3-YFP, P47069 1-682 (natural protein)
chain: MNNSNEHRREEAGAANEQMPYNKAVKSAYADVLKDKMNREQEISLRAIKKGIYTDGGETDNYDMDKENDSAYEMFKKNLDFPLDQHNDDDDDDPYIEDNGQETDGYSDEDYTDEADKSFIEDSDSDSYDLESNSDFEENLESSGEAKKLKWRTYIFYGGLFFVFYFFGSFLMTTVKNNDLESHSSGATSSPGKSFSNLQKQVNHLYSELSKRDEKHSSELDKTVKIIVSQFEKNIKRLLPSNLVNFENDINSLTKQVETISTSMSELQRRNHKFTVENVTQWQDQLVKQLDTHLPQEIPVVINNSSSLLIIPELHNYLSALISDVIESPGIGTAGSAESRWEYDLNRYVKEILSNELQYIDKDYFIQEMNRRLQSNKQEIWEEITNRLETQQQQQQQQVQQDYSNVPQQYSSILMKRLIHQIYNSNQHQWEDDLDFATYVQGTKLLNHLTSPTWRQGSGVQPIELLTDSKQSSSTYWQCENEPGCSWAIRFKTPLYLTKISYMHGRFTNNLHIMNSAPRLISLYVKLSQTKEIKALQTLANQYGFGQHHKRDRNYIKIAKFEYRLTDSRIRQQMYLPPWFIQLKPLVRSIVFQVDENYGNKKFISLRKFIINGVTPQDLQIIENNEFPVLLGDTPEYGVTQNTDEGKRKVLLSKPPYASSSTSTKFHPASNVPSFGQDELDQ
